Test results reported in paper PMC3630103 (2013).

Target: CHIKV pE2-E1 (E3-E2-E1) of the CHIKV-LR strain (Chikungunya virus (strain La Reunion …, UniProt Q8JUX5))
Assay: SPR

Sequence of CHIKV pE2-E1 (E3-E2-E1) of the CHIKV-LR strain (Chikungunya virus (Q8JUX5 whole entry, looked up): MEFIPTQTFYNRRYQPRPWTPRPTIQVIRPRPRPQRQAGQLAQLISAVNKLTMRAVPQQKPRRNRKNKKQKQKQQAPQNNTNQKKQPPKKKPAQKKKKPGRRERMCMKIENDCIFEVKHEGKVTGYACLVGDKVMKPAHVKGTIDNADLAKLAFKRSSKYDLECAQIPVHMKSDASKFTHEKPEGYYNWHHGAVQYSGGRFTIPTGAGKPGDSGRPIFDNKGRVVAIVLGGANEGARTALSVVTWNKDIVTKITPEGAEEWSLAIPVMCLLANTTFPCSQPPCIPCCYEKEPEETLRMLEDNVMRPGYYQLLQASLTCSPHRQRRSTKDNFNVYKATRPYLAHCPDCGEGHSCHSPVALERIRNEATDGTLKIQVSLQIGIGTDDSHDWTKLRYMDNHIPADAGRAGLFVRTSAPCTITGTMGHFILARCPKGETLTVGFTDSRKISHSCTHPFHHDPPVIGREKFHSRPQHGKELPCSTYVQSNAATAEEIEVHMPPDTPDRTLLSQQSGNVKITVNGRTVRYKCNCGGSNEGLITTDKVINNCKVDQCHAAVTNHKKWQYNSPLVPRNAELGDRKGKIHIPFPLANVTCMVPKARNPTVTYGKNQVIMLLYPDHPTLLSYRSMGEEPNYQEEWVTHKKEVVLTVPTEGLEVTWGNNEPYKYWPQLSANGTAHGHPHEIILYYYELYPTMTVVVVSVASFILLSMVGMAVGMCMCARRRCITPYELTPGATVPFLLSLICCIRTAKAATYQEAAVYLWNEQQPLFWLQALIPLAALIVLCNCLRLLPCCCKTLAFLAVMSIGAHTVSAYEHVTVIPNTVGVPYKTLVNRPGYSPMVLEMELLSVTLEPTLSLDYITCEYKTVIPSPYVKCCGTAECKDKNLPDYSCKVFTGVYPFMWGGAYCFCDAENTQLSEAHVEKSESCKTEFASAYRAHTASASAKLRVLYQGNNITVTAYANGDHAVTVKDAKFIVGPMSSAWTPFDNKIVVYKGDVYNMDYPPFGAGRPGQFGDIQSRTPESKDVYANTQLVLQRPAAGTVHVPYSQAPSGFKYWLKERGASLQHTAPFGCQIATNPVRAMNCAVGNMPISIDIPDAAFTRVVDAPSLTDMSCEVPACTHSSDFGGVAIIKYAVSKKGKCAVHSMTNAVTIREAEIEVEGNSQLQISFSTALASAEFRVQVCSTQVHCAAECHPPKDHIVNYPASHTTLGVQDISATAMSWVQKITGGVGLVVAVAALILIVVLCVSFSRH

Binder	Kd	koff
chimeric mouse-human CHK-152 N297Q (aglycosyl variant) (antibody, V domains shown) VH: QVQLQQPGAALVKPGASAMMSCKASGYTFTSYWITWVKQRPGQGLEWIGDIYPGTGRTIYKEKFKTKATLTVDTSSSTAFMQLNSLTSEDSAVYYCARGYGSPYYALDYWGQGTSVTVSS VL: DIVLTQSPASLAVSQGQRATISCKASQSVDYDGDSYVNWYQQKPGQSPKLLIYDASNLESGIPARFSGSGSGTDFTLNIHPVEEEDVATYYCQESNEDPRTFGGGTKLEIK	3.9 nM	0.00051 s⁻¹
chimeric mouse-human CHK-152 (antibody, V domains shown) VH: QVQLQQPGAALVKPGASAMMSCKASGYTFTSYWITWVKQRPGQGLEWIGDIYPGTGRTIYKEKFKTKATLTVDTSSSTAFMQLNSLTSEDSAVYYCARGYGSPYYALDYWGQGTSVTVSS VL: DIVLTQSPASLAVSQGQRATISCKASQSVDYDGDSYVNWYQQKPGQSPKLLIYDASNLESGIPARFSGSGSGTDFTLNIHPVEEEDVATYYCQESNEDPRTFGGGTKLEIK	3.1 nM	0.0004 s⁻¹
